This assay has as its target T1, Bob1 (gene POU2AF1) peptide on HLA-B*35:01 (human).
T1 peptide: APAPTAVVL
Briefly: multimer staining.

B1: TCR 1C5.6 (TCR, V domains shown)
Valpha: AQSVTQLDSQVPVFEEAPVELRCNYSSSVSVYLFWYVQYPNQGLQLLLKYLSGSTLVESINGFEAEFNKSQTSFHLRKPSVHISDTAEYFCAVKVSNAGGTSYGKLTFGQGTILTVHP
Vbeta: DGGITQSPKYLFRKEGQNVTLSCEQNLNHDAMYWYRQDPGQGLRLIYYSQIVNDFQKGDIAEGYSVSREKKESFPLTVTSAQKNPTAFYLCASSIAQGADTQYFGPGTRLTVL
Take B1: the binding result is on record as “no recognition”.

For the origin of these results see patent US20240009235A1 (published 2024).
